According to patent US20170152286A1:
Positions of bridges follow the written chain, without caps; N, C: chain ends. Non-standard residues stand in square brackets, D forms with d. No end group written: not given here. Lys(5-OH) = 5-hydroxyl lysine

Target: MAGUK GK domain
Test: ITC

Kd: 5.9 µM
Binder: ARRDEYL[Lys(5-OH)]AIQ-NH2 (lactam 4-8)
